# Results: patent US10287317B2, “Proprotein convertase subtilisin kexin type 9 (PCSK9) allosteric binding ligands to modulate serum low density lipoprotein (LDL) levels” (SRX Cardio, LLC, priority 2013, dated 2019)
# *1 amine or outer side, *2 acyl side, *3 side chain or, on linkers, in order; H or OH if unused. Where a SMILES comes first, the peptide text is derived from it. Where no end group is shown, it is not given here. [ ]: non-standard residue; d: D form. The star is where a group is joined. Asp(NHCH2Ph) = Asp side-chain benzylamide, O=C(C[C@H](N[*:1])C(=O)[*:2])NCc1ccccc1; Cys(CH2-Ph) = S-benzyl-Cys, O=C([C@H](CSCc1ccccc1)N[*:1])[*:2]; Phe(3-CH2NH2) = O=C([C@H](Cc1cccc(CN[*:3])c1)N[*:1])[*:2]; Bip = N[C@@H](Cc1ccc(-c2ccccc2)cc1)C(=O)O; d(pS) = N[C@H](COP(=O)(O)O)C(=O)O; hCha = N[C@@H](CCC1CCCCC1)C(=O)O; hPhe = N[C@@H](CCc1ccccc1)C(=O)O; pS = N[C@@H](COP(=O)(O)O)C(=O)O; Cit = NC(=O)NCCC[C@H](N)C(=O)O; Bn = c1ccc(C*)cc1; βAla = NCCC(=O)O
# B1: SRX310: Val-Tyr-Val-Cit-Phe-Trp-NH2 (peptide)
# peptide: VYV[Cit]FW-NH2
# modifications: N-terminus assumed
# SMILES: CC(C)[C@H](N)C(=O)N[C@@H](Cc1ccc(O)cc1)C(=O)N[C@H](C(=O)N[C@@H](CCCNC(N)=O)C(=O)N[C@@H](Cc1ccccc1)C(=O)N[C@@H](Cc1c[nH]c2ccccc12)C(N)=O)C(C)C
# Experiments:
# PCSK9-WT protein [1] = target: T1, PCSK9-WT protein (Homo sapiens, UniProt Q8NBP7); experiment: FACS analysis of cell surface LDLR in HuH7 cells with PCSK9-WT; format: cell-based; conditions: FACS, HuH7 cells; for inhibition at 100 µM: Huh-7, peptide at 100 uM, read-out: Cell Activity of Exemplified Peptides (inhibition); for modulation of LDLR cell surface level: exogenous WT PCSK9 plus peptide (FIG. 1, 100 μM)
# T1 construct: V5
# T1 sequence (Q8NBP7 153-692): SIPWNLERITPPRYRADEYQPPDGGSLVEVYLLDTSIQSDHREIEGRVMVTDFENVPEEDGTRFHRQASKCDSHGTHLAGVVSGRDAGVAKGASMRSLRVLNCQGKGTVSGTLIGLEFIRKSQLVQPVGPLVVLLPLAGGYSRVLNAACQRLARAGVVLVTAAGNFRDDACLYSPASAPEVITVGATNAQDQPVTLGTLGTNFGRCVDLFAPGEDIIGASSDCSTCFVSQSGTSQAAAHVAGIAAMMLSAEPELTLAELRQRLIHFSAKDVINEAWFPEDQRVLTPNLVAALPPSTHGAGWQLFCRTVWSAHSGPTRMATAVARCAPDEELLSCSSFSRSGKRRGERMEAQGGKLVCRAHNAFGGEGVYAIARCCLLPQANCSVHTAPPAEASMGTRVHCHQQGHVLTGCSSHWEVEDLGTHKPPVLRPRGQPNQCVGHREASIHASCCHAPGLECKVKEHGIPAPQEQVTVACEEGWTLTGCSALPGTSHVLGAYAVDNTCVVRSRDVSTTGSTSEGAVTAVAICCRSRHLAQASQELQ
# Protocol: HuH7 cells were incubated for 18 h in the absence (Cnt) or presence of 0.75 μg/ml PCSK9-WT protein alone (WT) or mixed with 100 μM of various SRX peptides. The level of LDLR at the cell surface was measured by FACS using anti human LDLR Ab and a suitable secondary Ab labeled with Alexa 647. Cell surface LDLR is reported relative to Cnt. % inhibition of activity was calculated as [SRX−WT]/[Cnt−WT]×100%.
# See, FIG. 1. In that experiment, the LDLR levels of a hepatocyte culture model (HuH7 cells) were measured by fluorescence activated cell sorting (FACS) in accordance with Example III. Cell surface LDLR is reported as a percentage of Basal levels of LDLR, indicated by the Cnt_Amm.Bic, Cnt_Ac.Acid, and Cnt bars in the top graph. See, FIG. 1 (top panel). LDLR levels in the presence of exogenous PCSK9 is indicated as WT_Amm.Bic, WT-Ac.Acid, and WT, and Exogenous PCSK9 in combination with a tested peptide is indicated as SRX##. The measured LDLR levels are reported as % versus basal controls (Cnt) of the respective group. […] This was further shown a percent inhibition (% inhibition was calculated as [SRX−WT]/[Cnt−WT]×100%) where positive modulation (increase) of LDLR level is reported as positive % inhibition, and negative modulation (decrease) of LDLR level is reported as negative % inhibition. See, FIG. 1 (bottom panel).
# Benjannet et al., “Effects of the prosegment and pH on the activity of PCSK9: evidence for additional processing events” J Biol Chem. 285(52): 40965-40978 (2010). The cells were then washed 3× with solution A (calcium/magnesium-free Dulbecco's PBS (Invitrogen) containing 0.5% bovine serum albumin (Sigma) and 1 g/liter glucose)). The cells were then incubated for 10 min at room temperature with 1× Versene solution (Invitrogen) followed by the addition of 5 ml of solution A. The cells were then incubated for 40 min in solution A containing a human LDLR mAb-C7 (1:100; Santa Cruz Biotechnology). Following washes, the cells were then incubated for 20 min in solution A containing a secondary antibody (Alexa Fluor 647 donkey anti-mouse antibody; 1:250; Molecular Probes).
# Following suspension in PBS containing 0.2% of propidium iodide, the cells were analyzed by FACS for both propidium iodide (dead cells) and LDLR in live cells with Alexa Fluor 647 using the FACS BD LSR (BD Biosciences).
# PCSK9-D374Y protein = PCSK9-D374Y protein (Homo sapiens, UniProt Q8NBP7, D374Y); experiment: Cellular diI-LDL uptake in HuH7 cells with PCSK9-D374Y; format: cell-based; conditions: HuH7, 0.5 μg/ml PCSK9-D374Y, 100 uM peptide (FIG. 3)
# PCSK9-D374Y protein, sequence (Q8NBP7 153-692 D374Y): as the sequence (Q8NBP7 153-692) above, with D222Y counted along it
# Protocol: (§1) HuH7 cells were incubated in a 96-well plate for a total of 20 h in the absence (Cnt) or presence of 0.5 μg/ml PCSK9-D374Y protein alone (DY) or mixed with 100 uM of various SRX peptides. After 16 h, dil-LDL (5 ug/ml) was added to the incubation mixtures. After 4 h, fluorescence was measured (Ex: 520 nm/Em: 575 nm; cutoff: 550 nm). Dil-LDL uptake is calculated as RFU corrected for the number of cells.
# as §1, with “PCSK9 GOF-D374Y” for “PCSK9-D374Y”, “increasing concentrations” for “100 uM”
# (§2) LDL internalization was measured by uptake of a fluorescently tagged LDL molecule (diI-LDL) in the absence of exogenous PCSK9 (Cnt), in the presence of exogenous PCSK9 (normal PCSK9=WT, D374Y mutant PCSK9=DY), or in the presence of PCSK9 and a tested peptide (indicated as SRX##, or SRX if a single peptide results is shown in a graph).
# (§3) Cells, such as HepG2, HuH7, FL83B or a cell line transfected with a short-hairpin PCSK9 knockdown sequence such as HepG2/shPCSK9, HuH7/shPCSK9, FL83B/shPCSK9, were seeded at 2×10^4 cells/well in a 96-well plate and cultured at 37 degC in RPMI+10% FBS. After approximately 24 hours, the cell media was aspirated off and replaced with RPMI+3-5 mg/mL LPDS (Lipoprotein Deficient Serum, Millipore) media for further experimentation. Benjannet et al., “Effects of the prosegment and pH on the activity of PCSK9: evidence for additional processing events” J Biol Chem. 285(52): 40965-40978 (2010).
# (§4) Peptide activity was assessed by culturing cells with: i) no SRX peptide/PCSK9 protein complex (control, Cnt); ii) PCSK9 protein; and iii) SRX peptide/PCSK9 complex. Various permutations of these experimental conditions were also used, including: i) the addition of wild type PCSK9 (WT); ii) a mutant PCSK9 (e.g., D374Y mutant PCSK9, DY); iii) various SRX peptides and/or PCSK9 at the same concentration and/or combinations; iv) various SRX peptides and/or PCSK9 at different concentrations and/or combinations; v) the use of different cells, as mentioned above, with or without a transfected short-hairpin sequence; vi) a pre-incubation of the PCSK9 and SRX peptide (e.g., 1, hour, 2 hours, 3 hours, 4 hours etc.); vii) various temperatures including, but not limited to, body temperature (e.g., 37° C.), supraphysiologic temperature (e.g., 39° C.); and viii) with/without agitation (e.g., shaker or gentle periodic vortexing).
# (§5) Cells were cultured using one of the combinations of conditions described in the preceding paragraph for 16 hours. After 16 hours, a quantity of diI-LDL (Low density lipoprotein coupled with 1,1′-dioctadecyl-3,3,3′,3′-tetramethylindocarbocyanine perchlorate) needed to bring the media concentration to 5 ug/mL of diI-LDL was added to the culture well and cells continued to be cultured under these new conditions for 4 additional hours. At the end of the 4-hour incubation period (20 total hours of cell culture), the cellular uptake was halted with the addition of 4% formaldehyde in 10 uM Hoechst 33342 in a solvent such as deionized autoclaved water or PBS, and specimens were incubated at 20° C. for 20 minutes. Cell specimens were rinsed twice with PBS and then fluorescence measured with excitation at 360 nm and emission detected at 460 nm to measure DNA content. Cell specimens were then be incubated with a 0.1% SDS in a 0.1 N NaOH solution while being shaken for 10 minutes. Fluorescence of the diI-LDL in the specimens were quantified using excitation at 530 nm and resulting emission at 580 nm.
# Fluorescence measurements of diI-LDLR were normalized to estimated cell numbers, determined from the Hoechst fluorescence. […]
# PCSK9-WT protein [2] = target: T1, PCSK9-WT protein; experiment: Cellular diI-LDL uptake in HuH7 cells with PCSK9-WT; format: cell-based; conditions: HuH7, 1.0 μg/ml PCSK9-WT, 100 uM peptide (FIG. 2)
# Protocol: as §1, with “1.0” for “0.5”, “PCSK9-WT” for “PCSK9-D374Y”, “(WT)” for “(DY)”
# as §2, §3, §4, §5
# Fluorescence measurements of diI-LDLR were normalized to estimated cell numbers, determined from the Hoechst fluorescence. Data was analyzed for the different experimental conditions and reported as percentage relative fluorescence units (RFU) of the Cnt specimen. Percent inhibition was calculated as the difference in RFU of a peptide exposed specimen to the RFU of PCSK9-no peptide, divided by the RFU difference in PCSK9-no peptide to RFU of Cnt specimen, also expressed as [(SRX:RFU)−(PCSK9-no peptide:RFU)]/[(PCSK9-no peptide:RFU)−(Cnt:RFU)]×100.
# [3] = target: PCSK9-WT protein (human proprotein convertase subtilisin/kexin type 9) (human, UniProt Q8NBP7 31-692, limits assumed); experiment: cell-based or functional assay
# PCSK9-WT protein (human proprotein convertase subtilisin/kexin type 9), sequence (Q8NBP7 31-692 limits assumed): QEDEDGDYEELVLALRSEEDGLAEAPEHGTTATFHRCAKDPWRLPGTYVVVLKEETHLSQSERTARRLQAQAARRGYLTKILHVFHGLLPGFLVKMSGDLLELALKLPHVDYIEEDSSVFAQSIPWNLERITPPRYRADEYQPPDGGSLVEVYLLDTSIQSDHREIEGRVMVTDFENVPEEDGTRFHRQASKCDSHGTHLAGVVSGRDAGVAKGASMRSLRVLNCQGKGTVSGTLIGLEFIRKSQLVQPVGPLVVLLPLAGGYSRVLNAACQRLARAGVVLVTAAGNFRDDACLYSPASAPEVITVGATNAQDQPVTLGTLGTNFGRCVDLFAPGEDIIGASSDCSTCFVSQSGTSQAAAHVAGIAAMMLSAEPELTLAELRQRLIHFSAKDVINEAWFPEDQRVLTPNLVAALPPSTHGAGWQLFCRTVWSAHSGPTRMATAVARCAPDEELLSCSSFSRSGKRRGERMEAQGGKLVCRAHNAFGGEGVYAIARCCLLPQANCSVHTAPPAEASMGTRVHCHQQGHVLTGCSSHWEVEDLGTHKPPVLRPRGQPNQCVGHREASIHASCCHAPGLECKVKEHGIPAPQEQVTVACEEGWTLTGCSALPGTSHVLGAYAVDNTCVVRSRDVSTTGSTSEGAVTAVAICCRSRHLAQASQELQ
molecule,measurement,setting,value
"CC(C)C[C@H](NC(=O)[C@@H](N)[C@@H](C)O)C(=O)N[C@@H](CSCc1ccccc1)C(=O)N[C@H](C(=O)N[C@@H](Cc1c[nH]c2ccccc12)C(=O)N[C@@H](CO)C(=O)N[C@@H](CO)C(=O)N[C@@H](COP(=O)(O)O)C(=O)O)[C@@H](C)O [Compound 3, Thr-Leu-Cys(CH2-Ph)-Thr-Trp-Ser-Ser-Ser(p)] (H-TLC(Bn)TWSS[pS]-OH)",inhibition at 100 µM,PCSK9-WT protein [1],> 30%
"CC(=O)N[C@@H](Cc1ccc(O)cc1)C(=O)N[C@@H](Cc1c[nH]c2ccccc12)C(=O)NCC(=O)O [Compound 14, Ac-Tyr-Trp-Gly] (Ac-Tyr-Trp-Gly-OH)",LDL internalization (dil-LDL % uptake vs Cnt),PCSK9-D374Y protein,negatively modulated (decreased)
same,modulation of LDLR cell surface level,PCSK9-WT protein [1],negatively modulate (decrease)
same,inhibition at 100 µM,PCSK9-WT protein [1],< -30%
Ac-Trp-Ala-Ser(p) (Ac-Trp-Ala-[pS]) [Compound 12],modulation of LDLR cell surface level,PCSK9-WT protein [1],negatively modulate (decrease)
Ile-Leu-Asp-Leu-Ser-Tyr (ILDLSY; not fully specified (C-terminus); printed as Ile-Leu-Asp-Leu-Ser-Tyr) [Compound 10],LDL internalization (dil-LDL % uptake vs Cnt),PCSK9-WT protein [2],positively modulated (increased)
Thr-Leu-Asp(NHCH2Ph)-Thr-Trp-Ser-Ser-Ser(p) (TL[Asp(NHCH2Ph)]TWSS[pS]) [Compound 4],LDL internalization (dil-LDL % uptake vs Cnt),PCSK9-WT protein [2],negatively modulated (decreased)
Thr-Leu-Gly(CH2CH2cyclohexyl)-Thr-Trp-Ser-Ser-Ser(p) (TL[hCha]TWSS[pS]) [Compound 5],modulation of LDLR cell surface level,PCSK9-WT protein [1],positively modulate (increase)
Thr-Leu-Hph-Thr-Trp-Ser-Ser-Ser(p) (TL[hPhe]TWSS[pS]) [Compound 6],LDL internalization (dil-LDL % uptake vs Cnt),PCSK9-D374Y protein,positively modulated (increased)
B1,"cell surface LDLR levels, FACS in HuH7 cells, 10 nM recombinant PCSK9",[3],60 % reversal
VYV[Cit]FW-NHEt [SRX314: Val-Tyr-Val-Cit-Phe-Trp-NHEt],"cell surface LDLR levels, FACS in HuH7 cells, 10 nM recombinant PCSK9",[3],> 60 % reversal
VYVRF-{NH(cyclopentyl)} [SRX321: Val-Tyr-Val-Arg-Phe-NH(cyclopentyl)],"cell surface LDLR levels, FACS in HuH7 cells, 10 nM recombinant PCSK9",[3],> 60 % reversal
VYVRFW (not fully specified; printed as Val-Tyr-Val-Arg-Phe-Trp) [SRX55: Val-Tyr-Val-Arg-Phe-Trp],"Cell Activity of Exemplified Peptides (FACS of cell surface LDLR, HuH7/shPCSK9 cells)",[3],> 30 % inhibition above control at 100 uM
[βAla][Phe(3-CH2NH2)]V[d(pS)]FW [SRX56: β-Ala-Phe(3-CH2NH2)-Val-D-Ser(p)-Phe-Trp],"Cell Activity of Exemplified Peptides (FACS of cell surface LDLR, HuH7/shPCSK9 cells)",[3],> 30 % inhibition above control at 100 uM
TL[Cys(CH2-Ph)]TWSS[pS] [SRX60: Thr-Leu-Cys(CH2-Ph)-Thr-Trp-Ser-Ser-Ser(p)],"Cell Activity of Exemplified Peptides (FACS of cell surface LDLR, HuH7/shPCSK9 cells)",[3],> 30 % inhibition above control at 100 uM
TL[Asp(NHCH2Ph)]TWSS[pS] [SRX61: Thr-Leu-Asp(NHCH2Ph)-Thr-Trp-Ser-Ser-Ser(p)],"Cell Activity of Exemplified Peptides (FACS of cell surface LDLR, HuH7/shPCSK9 cells)",[3],> 30 % inhibition above control at 100 uM
TL[hCha]TWSS[pS] [SRX62: Thr-Leu-Gly(CH2CH2cyclohexyl)-Thr-Trp-Ser-Ser-Ser(p)],"Cell Activity of Exemplified Peptides (FACS of cell surface LDLR, HuH7/shPCSK9 cells)",[3],> 30 % inhibition above control at 100 uM
VLELYW [SRX65: Val-Leu-Glu-Leu-Tyr-Trp],"Cell Activity of Exemplified Peptides (FACS of cell surface LDLR, HuH7/shPCSK9 cells)",[3],> 30 % inhibition above control at 100 uM
LDLFFS [SRX66: Leu-Asp-Leu-Phe-Phe-Ser],"Cell Activity of Exemplified Peptides (FACS of cell surface LDLR, HuH7/shPCSK9 cells)",[3],> 30 % inhibition above control at 100 uM
Ac-Trp-Ala-[pS] [SRX69: Ac-Trp-Ala-Ser(p)],"Cell Activity of Exemplified Peptides (FACS of cell surface LDLR, HuH7/shPCSK9 cells)",[3],> 30 % inhibition below control at 100 uM
Ac-Tyr-Trp-Gly [SRX72: Ac-Tyr-Trp-Gly],"Cell Activity of Exemplified Peptides (FACS of cell surface LDLR, HuH7/shPCSK9 cells)",[3],> 30 % inhibition below control at 100 uM
[Bip]-Ala-[pS]-morpholine [SRX73: Phe(4-Ph)-Ala-Ser(p)-morpholine],"Cell Activity of Exemplified Peptides (FACS of cell surface LDLR, HuH7/shPCSK9 cells)",[3],> 30 % inhibition below control at 100 uM
